Results: the Immune Epitope Database (IEDB)

target: HLA-A*02:01; assay: IEDB peptide-MHC binding, purified MHC/competitive/radioactivity; filed as Kd, often an IC50 or EC50 that approximates it; ≥ and ≤ were set here for values at or beyond the usual limits of such assays; conditions: source organism: Trypanosoma cruzi

**Q.** With LLYSDDALHL as the sequence, how does the Kd read?
**A.** The Kd was 317 nM.

**Q.** Which Kd does the source give for MLQDGNKGSV here?
**A.** The Kd was 840 nM.

**Q.** VLAKDGTEV was tested. Which Kd did it give?
**A.** Its Kd is 67 nM.

**Q.** How did the Kd turn out when LLGLWGLTGL was run?
**A.** Its Kd is 1.3 nM.

**Q.** For IAGGVMAVV, which Kd is on record?
**A.** The Kd was 196 nM.

**Q.** LLLGLWGFAA was tested. Which Kd did it give?
**A.** The Kd was 534 nM.

**Q.** How did the Kd turn out when IVMGNGTLV was run?
**A.** The Kd was 998 nM.

**Q.** How did the Kd turn out when VLLPSLFLLL was run?
**A.** Its Kd is 99 nM.

**Q.** Which Kd does the source give for WVFPESISPV here?
**A.** The Kd was 109 nM.

**Q.** Which Kd does the source give for LLPSLFLLL here?
**A.** The Kd was 125 nM.

**Q.** Which Kd does the source give for PLLLLGLWGL here?
**A.** Its Kd is 643 nM.

**Q.** For FLYNRPLSV, which Kd is on record?
**A.** Its Kd is 146 nM.

**Q.** With FVNHDFTVV as the sequence, how does the Kd read?
**A.** The Kd was 300 nM.

**Q.** Which Kd does the source give for FLLLGLWGFA here?
**A.** Its Kd is 207 nM.

**Q.** How did the Kd turn out when VLLPSLFLL was run?
**A.** Its Kd is 36 nM.

**Q.** With SVYVDAKLV as the sequence, how does the Kd read?
**A.** Its Kd is 102 nM.

**Q.** How did the Kd turn out when KLFPEVIDL was run?
**A.** Its Kd is 203 nM.

**Q.** How did the Kd turn out when FVDYNFTIV was run?
**A.** The Kd was 240 nM.

**Q.** LLLLGLWGL was tested. Which Kd did it give?
**A.** The Kd was 22 nM.

**Q.** How did the Kd turn out when GIRPYEILA was run?
**A.** The Kd was 33 nM.
